Assay results: PMC2212017

Biological target: T1, TRPV2 (transient receptor potential vanilloid 2), endogenous in RBL2H3 mast cells (rat (endogenous in RBL2H3)), Q9WUD2
T1 chain: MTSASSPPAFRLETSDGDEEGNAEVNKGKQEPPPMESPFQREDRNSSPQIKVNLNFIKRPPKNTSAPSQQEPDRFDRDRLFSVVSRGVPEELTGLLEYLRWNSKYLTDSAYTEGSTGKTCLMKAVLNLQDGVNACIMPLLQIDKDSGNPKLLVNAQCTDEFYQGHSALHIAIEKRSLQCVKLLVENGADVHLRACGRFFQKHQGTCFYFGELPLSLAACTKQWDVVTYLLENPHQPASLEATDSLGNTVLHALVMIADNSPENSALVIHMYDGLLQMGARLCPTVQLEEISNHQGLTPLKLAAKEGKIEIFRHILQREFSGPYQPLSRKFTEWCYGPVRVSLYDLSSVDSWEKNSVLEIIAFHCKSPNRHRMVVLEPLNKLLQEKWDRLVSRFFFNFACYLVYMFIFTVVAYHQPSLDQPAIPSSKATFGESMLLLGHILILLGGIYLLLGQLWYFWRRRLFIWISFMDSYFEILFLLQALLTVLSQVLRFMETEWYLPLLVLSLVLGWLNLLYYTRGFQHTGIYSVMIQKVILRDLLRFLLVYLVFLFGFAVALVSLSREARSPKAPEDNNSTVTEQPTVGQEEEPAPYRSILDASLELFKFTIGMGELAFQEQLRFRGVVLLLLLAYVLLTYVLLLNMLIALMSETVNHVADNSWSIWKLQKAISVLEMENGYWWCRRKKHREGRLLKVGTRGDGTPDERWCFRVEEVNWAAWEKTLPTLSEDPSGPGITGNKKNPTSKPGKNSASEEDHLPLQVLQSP
Experiment: native gel or EMSA
Conditions: remark: other sources report otherwise

stoichiometry N: 4
B1: TRPV2 (transient receptor potential vanilloid 2), endogenous in RBL2H3 mast cells, Q9WUD2 1-761 (natural protein)
chain: MTSASSPPAFRLETSDGDEEGNAEVNKGKQEPPPMESPFQREDRNSSPQIKVNLNFIKRPPKNTSAPSQQEPDRFDRDRLFSVVSRGVPEELTGLLEYLRWNSKYLTDSAYTEGSTGKTCLMKAVLNLQDGVNACIMPLLQIDKDSGNPKLLVNAQCTDEFYQGHSALHIAIEKRSLQCVKLLVENGADVHLRACGRFFQKHQGTCFYFGELPLSLAACTKQWDVVTYLLENPHQPASLEATDSLGNTVLHALVMIADNSPENSALVIHMYDGLLQMGARLCPTVQLEEISNHQGLTPLKLAAKEGKIEIFRHILQREFSGPYQPLSRKFTEWCYGPVRVSLYDLSSVDSWEKNSVLEIIAFHCKSPNRHRMVVLEPLNKLLQEKWDRLVSRFFFNFACYLVYMFIFTVVAYHQPSLDQPAIPSSKATFGESMLLLGHILILLGGIYLLLGQLWYFWRRRLFIWISFMDSYFEILFLLQALLTVLSQVLRFMETEWYLPLLVLSLVLGWLNLLYYTRGFQHTGIYSVMIQKVILRDLLRFLLVYLVFLFGFAVALVSLSREARSPKAPEDNNSTVTEQPTVGQEEEPAPYRSILDASLELFKFTIGMGELAFQEQLRFRGVVLLLLLAYVLLTYVLLLNMLIALMSETVNHVADNSWSIWKLQKAISVLEMENGYWWCRRKKHREGRLLKVGTRGDGTPDERWCFRVEEVNWAAWEKTLPTLSEDPSGPGITGNKKNPTSKPGKNSASEEDHLPLQVLQSP
